B1: LINE1-full (parent)
chain: UACGUAGGUGGUUUUCCCCUGAUAGUGCUAAGGGGGCCUGGAAGUUUGGACUGGGCAGAGCUCAACACAGCGUGGCAAAGUGGCUGUGGCUAGACUGCCUCUCUGGAUUCCUCGUCACUCAGCAGGGCAUCUCUGAGAGAAAUGCC

Variants of: B1
Assay: self-cleavage, relative activity (ratio to wild type); higher = more cleavage; in vitro, sequencing; the parent is a self-cleaving ribozyme

Row | Variant | self-cleavage
1 | U1C U85A | 0.03
2 | U1C U85G | 0.08
3 | U1C U87C | 0.1
4 | U1C U91C | 0.39
5 | U1C U100C | 1.2
6 | U1C U102A | 0.25
7 | U1C U108C | 0.67
8 | U1C U109A | 2.04
9 | U1C U109C | 0.42
10 | U1C U112C | 2.17
11 | U1C U115C | 1.19
12 | U1C U119A | 1.47
13 | U1C U130A | 0.83
14 | U1C U143C | 1.18
15 | U1G | 0.87
16 | U1G A30G | 0.61
17 | U1G A42U | 0.28
18 | U1G A64G | 0.46
19 | U1G A138G | 1.57
20 | U1G C37G | 0.49
21 | U1G G80A | 0.75
22 | U1G U52C | 2.63
23 | U1G U132C | 1.36
24 | A2C A50U | 0.75

Row | Variant | self-cleavage
25 | A2C A65G | 0.12
26 | A2C A140G | 1.28
27 | A2C A142G | 1.78
28 | A2C G4U | 1.34
29 | A2C G89A | 0.05
30 | A2C G93A | 0.03
31 | A2C U5C | 1.12
32 | A2C U14A | 1.16
33 | A2C U73A | 1.29
34 | A2C U85G | 0.16
35 | A2C U102C | 1.65
36 | A2C U119C | 0.89
37 | A2C U130C | 1.19
38 | A2C U143A | 1.85
39 | A2G A6U | 0.53
40 | A2G A22G | 0.97
41 | A2G A22U | 0.19
42 | A2G A24U | 1.34
43 | A2G A30G | 0.87
44 | A2G A31G | 1
45 | A2G A43G | 0.87
46 | A2G A50G | 0.39
47 | A2G A50U | 0.18
48 | A2G A57U | 0.38

Row | Variant | self-cleavage
49 | A2G A59U | 0.8
50 | A2G A64C | 0.59
51 | A2G A64G | 0.39
52 | A2G A64U | 0.88
53 | A2G A65G | 0.2
54 | A2G A65U | 0.66
55 | A2G A67G | 0.41
56 | A2G A67U | 0.18
57 | A2G A77U | 0.79
58 | A2G A79G | 0.87
59 | A2G A94G | 0.25
60 | A2G A94U | 0.29
61 | A2G A107G | 0.94
62 | A2G A117G | 0.3
63 | A2G A121G | 1.44
64 | A2G A124G | 0.74
65 | A2G A124U | 0.88
66 | A2G A129U | 0.62
67 | A2G A136U | 0.77
68 | A2G A138G | 0.98
69 | A2G A138U | 0.69
70 | A2G A140C | 0.51
71 | A2G A141U | 0.24
72 | A2G A142G | 0.93

Row | Variant | self-cleavage
73 | A2G A142U | 1.12
74 | A2G C3U | 0.65
75 | A2G C19A | 1.24
76 | A2G C28U | 0.72
77 | A2G C37G | 0.87
78 | A2G C71G | 0.42
79 | A2G G4U | 0.4
80 | A2G G32A | 0
81 | A2G G34C | 0.75
82 | A2G G35A | 1.2
83 | A2G G36U | 0.67
84 | A2G G44U | 0.87
85 | A2G G72A | 1.15
86 | A2G G72U | 0.53
87 | A2G G74A | 0.69
88 | A2G G75A | 0.7
89 | A2G G89A | 0.11
90 | A2G G106U | 1.04
91 | A2G G114A | 0.82
92 | A2G G144A | 0.86
93 | A2G U5C | 1.41
94 | A2G U9C | 0.83
95 | A2G U12C | 0.96
96 | A2G U15A | 1

Row | Variant | self-cleavage
97 | A2G U15C | 0.89
98 | A2G U20A | 0.37
99 | A2G U20C | 0.74
100 | A2G U23C | 0.69
101 | A2G U26A | 0.84
102 | A2G U26C | 0.88
103 | A2G U29A | 1.14
104 | A2G U29G | 1.09
105 | A2G U39C | 0.32
106 | A2G U45C | 1.19
107 | A2G U46A | 0.3
108 | A2G U46C | 0.72
109 | A2G U62G | 0.37
110 | A2G U73A | 0.95
111 | A2G U81A | 0.74
112 | A2G U85C | 0.48
113 | A2G U87C | 0.35
114 | A2G U91C | 0.45
115 | A2G U96A | 0.22
116 | A2G U100C | 0.62
117 | A2G U102G | 0
118 | A2G U104C | 0.84
119 | A2G U108A | 1.02
120 | A2G U108C | 0.94

Row | Variant | self-cleavage
121 | A2G U109A | 0.65
122 | A2G U112A | 0.09
123 | A2G U112G | 0.77
124 | A2G U115A | 1.08
125 | A2G U130A | 1.72
126 | A2G U132C | 1.04
127 | A2G U134C | 1.35
128 | A2G U134G | 1.21
129 | A2U A30G | 1.2
130 | A2U A42U | 0.47
131 | A2U A50G | 0.53
132 | A2U A57C | 0.16
133 | A2U A57G | 0.6
134 | A2U A64G | 0.23
135 | A2U A65U | 0.23
136 | A2U A67C | 0.12
137 | A2U A67U | 0.05
138 | A2U A77G | 1.77
139 | A2U A79U | 1.37
140 | A2U A92U | 0.32
141 | A2U A107G | 1
142 | A2U A107U | 0.52
143 | A2U A129G | 0.72
144 | A2U A138U | 1.01

Row | Variant | self-cleavage
145 | A2U A142G | 1.15
146 | A2U C16U | 0.32
147 | A2U C76U | 1.07
148 | A2U C111A | 0.68
149 | A2U C113A | 0.63
150 | A2U G11A | 0.92
151 | A2U G97A | 0.08
152 | A2U G122A | 0.79
153 | A2U G127C | 1.16
154 | A2U U12C | 0.64
155 | A2U U14C | 0.83
156 | A2U U15C | 1.19
157 | A2U U29C | 0.98
158 | A2U U46A | 0.51
159 | A2U U47C | 0.43
160 | A2U U52A | 0.92
161 | A2U U85A | 0.04
162 | A2U U96C | 0.31
163 | A2U U100A | 0.66
164 | A2U U100C | 0.95
165 | A2U U102C | 2.12
166 | A2U U109C | 1.74
167 | A2U U112C | 1.4

Source: the RNAGym collection of RNA variant scans (doi:10.7554/elife.90254)
